Experimental findings from paper PMC9162472, “Improved furfural tolerance in Escherichia coli mediated by heterologous NADH-dependent benzyl alcohol dehydrogenases” (Biochemical Journal, 2022) are described below.

Common to all, as to assay: purified protein
Conditions in all cases: 0.2 mM NADH, 50 mM potassium phosphate pH 7.2, 200 mM NaCl, 37 °C, error is 95% CI, kcat m^-1 [sic]

Substrate in series [1]: O=Cc1ccc(CO)o1
The class given is biochemical, Acinetobacter calcoaceticus.

Substrate in series [2]: O=Cc1ccccc1
The class given is biochemical, Acinetobacter calcoaceticus.

Substrate in series [3]: O=Cc1ccco1
The class given is biochemical, Acinetobacter calcoaceticus.

Substrate in series [4]: CCCCCC=O
The class given is biochemical, Burkholderia ambifaria.

Substrate in series [5]: O=Cc1ccc(CO)o1
The class given is biochemical, Burkholderia ambifaria.

Substrate in series [6]: O=Cc1ccccc1
The class given is biochemical, Burkholderia ambifaria.

Substrate in series [7]: O=Cc1ccco1
The class given is biochemical, Burkholderia ambifaria.

Substrate in series [8]: O=Cc1ccc(CO)o1
The format is biochemical, Pseudomonas putida.

Substrate in series [9]: O=Cc1ccccc1
The class given is biochemical, Pseudomonas putida.

Substrate in series [10]: O=Cc1ccco1
The format is biochemical, Pseudomonas putida.

B1: AcBAD (Acinetobacter calcoaceticus) (protein)
chain: MSELKDIIAAVTPCKGADFELQALKIRQPQGDEVLVKVVATGMCHTDLIVRDQYYPVPLPAVLGHEGSGIIEAIGPNVTELQVGDHVVLSYGYCGKCTQCNTGNPAYCSEFFGRNFSGADSEGNHALCTHDQGVVNDHFFAQSSFATYALSRENNTVKVTKDVPIELLGPLGCGIQTGAGACINALKVTPASSLVTWGAGAVGLSALLAAKVCGASIIIAVDIVESRLELAKQLGATHVINSKTQDPVAAIKEITDGGVNFALESTGRPEILKQGVDALGILGKIAVVGAPQLGTTAQFDVNDLLLGGKTILGVVEGSGSPKKFIPELVRLYQQGKFPFDQLVKFYAFDEINQAAIDSHKGITLKPIIKIA
B1: in series [1], the Km (usually the substrate concentration at which the rate is half of its maximum) turned out to be 294 ± 277 µM, the turnover number (kcat) (usually the maximal rate divided by the concentration of active sites) stood at 0.565 ± 0.146 s⁻¹ and the kcat/Km (commonly the turnover number divided by the Michaelis constant) was found to be 1670 ± 1670 M⁻¹ s⁻¹. Moreover, in series [2], the Km is 412 ± 251 µM, the kcat was determined as 6.57 ± 1.34 s⁻¹ and the kcat/Km worked out at 16700 ± 10000 M⁻¹ s⁻¹. In [3], the Km turned out to be 359 ± 224 µM, the catalytic constant (kcat) worked out at 2.73 ± 0.467 s⁻¹ and the specificity constant (kcat/Km) was 8330 ± 3330 M⁻¹ s⁻¹.

B2: BaBAD (Burkholderia ambifaria MC40-6) (protein)
chain: MYTENDTRAVTAAVARAAGAPFSIEPARIRAPRGDEVLVRVVATGLCHTDLIVRDQYYPVPLPAVLGHEGAGVVEAVGPNVKTLAAGDHVVLTYGACGHCASCAGGHGAYCRQFFALNFGGADADGQTALRDAAGEPLHDHFFAQSSFASYALARENNAIKVPKEAPLELLGPLGCGIQTGAGAVINSLAVRTGSSFASFGAGAVGMSAVMAARIAGATTIIAVDIVPSRLALALELGATHAINSKEVDVVDAIREITGGGVDYALESTGLPAVLSQGIDALGSRGTMGVVGAPKLGTKAEFDVNSLLLGGHTIRGIVEGDSVPQTFIPQLVQLHLQGRFPFDRLVKFYPLEQINQAAADSSSGITLKPILRLPH
Regarding B2, the Km was determined as 672 ± 374 µM in series [4], 377 ± 242 µM in [5], 78.3 ± 30 µM in series [6] and 75.2 ± 62.2 µM in series [7]. In addition, the kcat was found to be 0.758 ± 0.163 s⁻¹ in series [4], 1.09 ± 0.192 s⁻¹ in [5], 0.865 ± 0.0785 s⁻¹ in series [6] and 0.575 ± 0.112 s⁻¹ in [7]. Besides, the kcat/Km was determined as 1170 ± 667 M⁻¹ s⁻¹ in series [4], 3330 ± 1670 M⁻¹ s⁻¹ in series [5], 11700 ± 5000 M⁻¹ s⁻¹ in series [6] and 8330 ± 6670 M⁻¹ s⁻¹ in [7].

B3: XylB (Pseudomonas putida) (protein)
chain: EIKAAIVRQKNGPFLLEHVALNEPAEDQVLVRLVATGLCHTDLVCRDQHYPVPLPMVFGHEGAGVVERVGSAVKKVQPGDHVVLTFYTCGSCDACLSGDPTSCANSFGPNFMGRSVTGECTIHDHQGAEVGASFFGQSSFATYALSYERNTVKVTKDVPLELLGPLGCGIQTGAGSVLNALNPPAGSSIAIFGAGAVGLSAVMAAVVAGCTKIIVVDVKENRLKLADELGATHVINAASSDPVEKIKEICAGGVPYVLETSGLPSVLQQAILSSAIGGEIGIVGAPPMGATIPVDINFLLFNRKLRGIVEGQSISDIFIPRLVELYRQGKFPFDKLLKFYSFDEINQAAEDSENGITLKPVLRIS
In the case of B3, in series [8], the Km amounted to 461 ± 52.1 µM, the turnover number (kcat) came to 1.16 ± 0.0453 s⁻¹ and the kcat/Km is 3330 ± 333 M⁻¹ s⁻¹. For the same protein, in series [9], the Km stood at 21.2 ± 16.2 µM, the kcat worked out at 0.192 ± 0.0343 s⁻¹ and the catalytic efficiency (kcat/Km) turned out to be 8330 ± 6670 M⁻¹ s⁻¹. In [10], the Km came out at 234 ± 153 µM, the kcat was 2.45 ± 0.467 s⁻¹ and the kcat/Km amounted to 10000 ± 6670 M⁻¹ s⁻¹.
